Measured values taken from patent US20230192861A1 (ABL BIO, published 2023).

T1: human B7-H3 expressed on the surface of human cancer cell lines (human, UniProt Q5ZPR3 29-534)
T1 construct: whole, on cells; also called cell surface expression B7-H3
T1 sequence (looked up): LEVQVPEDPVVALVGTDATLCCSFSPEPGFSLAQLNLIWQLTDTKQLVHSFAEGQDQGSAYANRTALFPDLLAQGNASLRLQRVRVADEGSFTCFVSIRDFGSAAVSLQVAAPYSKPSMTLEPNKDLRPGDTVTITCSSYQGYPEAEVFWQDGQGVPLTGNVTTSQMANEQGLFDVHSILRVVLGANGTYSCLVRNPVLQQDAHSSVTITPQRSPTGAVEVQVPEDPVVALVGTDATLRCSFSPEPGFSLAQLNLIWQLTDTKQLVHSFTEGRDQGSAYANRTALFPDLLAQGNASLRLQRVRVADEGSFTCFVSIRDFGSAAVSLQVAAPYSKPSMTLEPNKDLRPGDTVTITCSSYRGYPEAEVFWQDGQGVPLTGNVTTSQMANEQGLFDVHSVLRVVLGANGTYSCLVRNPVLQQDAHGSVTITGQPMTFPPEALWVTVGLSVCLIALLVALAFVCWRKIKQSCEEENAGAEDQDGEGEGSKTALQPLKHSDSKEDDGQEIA


Legend:
[1] = molecular target: T1, human B7-H3 expressed on the surface of …; assay: FACS on RKO cells (express both B7-H3 and PD-L1), FITC anti-human IgG; the signal is not split between the two targets
[2] = molecular target: T2, PD-L1 expressed on RKO cells (human, UniProt Q9NZQ7 19-290); assay: as above
T2 construct: whole, on cells; RKO cells carry both PD-L1 and B7-H3; also called PD-L1 expressed on cell surface

[3] = molecular target: T1, human B7-H3 expressed on the surface of …; assay: FACS on RKO cells
Description: (§1) To evaluate the antigen binding property, 1+1 format bispecific antibodies were analyzed for its binding to mammalian expressed both B7-H3 and PD-L1 by FACS as compared to monospecific antibodies. Briefly, RKO cells (human colon carcinoma cell line) were incubated with antibodies. After wash by FACS buffer (1% BSA in PBS), the FITC-anti-human IgG antibody was added to each well and incubated at 4° C. for 1 hour. The MFI of FITC was evaluated by FACS Caliber. The results are described in FIG. 18.

[4] = molecular target: T2, PD-L1 expressed on RKO cells; assay: FACS on RKO cells
Description: as §1

[5] = molecular target: PD-L1 (Biacore, Example 1.6) (UniProt Q9NZQ7 19-238, limits assumed); assay: Biacore
[6] = molecular target: T2, PD-L1 expressed on RKO cells; assay: FACS on RKO cells (express both B7-H3 and PD-L1), FITC anti-human IgG
[7] = molecular target: T2, PD-L1 expressed on RKO cells; assay: as above; remark: listed apart in the source

PD-L1 (Biacore, Example 1.6), sequence (Q9NZQ7 19-238 limits assumed): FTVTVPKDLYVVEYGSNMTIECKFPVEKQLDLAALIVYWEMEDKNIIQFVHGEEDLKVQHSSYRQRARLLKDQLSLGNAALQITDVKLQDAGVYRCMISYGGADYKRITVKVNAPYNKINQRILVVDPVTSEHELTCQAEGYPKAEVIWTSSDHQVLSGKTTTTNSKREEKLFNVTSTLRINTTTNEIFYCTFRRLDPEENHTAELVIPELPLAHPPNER
T2 sequence (Q9NZQ7 19-290): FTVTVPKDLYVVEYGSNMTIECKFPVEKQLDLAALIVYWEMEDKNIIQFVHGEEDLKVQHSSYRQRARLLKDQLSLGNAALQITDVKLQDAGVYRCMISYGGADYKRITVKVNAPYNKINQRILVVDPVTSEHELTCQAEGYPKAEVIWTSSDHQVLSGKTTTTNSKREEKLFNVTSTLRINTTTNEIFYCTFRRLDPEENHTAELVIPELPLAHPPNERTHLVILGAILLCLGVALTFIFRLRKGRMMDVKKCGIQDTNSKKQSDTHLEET

| EC50 (read off the curve) [1] [nM] | EC50 (read off the curve) [2] [nM] | Kd [5] [nM] | koff [5] [s⁻¹] | kon [5] [M⁻¹ s⁻¹] | Binder | further results |
| --- | --- | --- | --- | --- | --- | --- |
| ~1 | ~1 |  |  |  | B6xC4I(2+2) (bispecific antibody, human IgG1, kappa, N297A, not the 1+1 format B6xC4I; also called ABLPNB.04; B6xC4I (2+2 format)) chain 1: not shown chain 2: DIQMTQSPSSLSASVGDRVTITCKASQDVTPAVAWYQQKPGKAPKLLIYSTSSRYTGVPSRFSGSGSGTDFTFTISSLQPEDIATYYCQQHYTTPLTFGQGTKLEIKRTVAAPSVFIFPPSDEQLKSGTASVVCLLNNFYPREAKVQWKVDNALQSGNSQESVTEQDSKDSTYSLSSTLTLSKADYEKHKVYACEVTHQGLSSPVTKSFNRGEC |  |
| ~1 | ~1 |  |  |  | B6xB5(2+2) (bispecific antibody, human IgG1, kappa, N297A, also called ABLPNB.03; B6xB5 (2+2 format)) chain 1: not shown chain 2: DIQMTQSPSSLSASVGDRVTITCKASQDVTPAVAWYQQKPGKAPKLLIYSTSSRYTGVPSRFSGSGSGTDFTFTISSLQPEDIATYYCQQHYTTPLTFGQGTKLEIKRTVAAPSVFIFPPSDEQLKSGTASVVCLLNNFYPREAKVQWKVDNALQSGNSQESVTEQDSKDSTYSLSSTLTLSKADYEKHKVYACEVTHQGLSSPVTKSFNRGEC |  |
|  |  |  |  |  | ABLPNB.09: bispecific antibody comprising the anti-PD-L1 B6 clone in (HC + LC) form and the anti-B7-H3 C4I clone in scFab-Fc form (bispecific antibody, human IgG1, kappa, lambda, Human IgG1, knobs-into-hole; also called B6xC4I (1+1 format)) heavy: not shown light: DIQMTQSPSSLSASVGDRVTITCKASQDVTPAVAWYQQKPGKAPKLLIYSTSSRYTGVPSRFSGSGSGTDFTFTISSLQPEDIATYYCQQHYTTPLTFGQGTKLEIKRTVAAPSVFIFPPSDEQLKSGTASVVCLLNNFYPREAKVQWKVDNALQSGNSQESVTEQDSKDSTYSLSSTLTLSKADYEKHKVYACEVTHQGLSSPVTKSFNRGEC not shown | binding result [3]: binds; binding result [4]: binds |
|  |  | 6.12 | 0.000436 | 71200 | H12 (antibody, V domains shown, Humanized anti-PD-L1 antibody; also called WT (H12); WT) VH: EVQLVESGGGLVQPGGSLRLSCAASGFTFSSYDMSWVRQAPGKSLEWVATISDAGGYIYYSDSVKGRFTISRDNAKNSLYLQMNSLRDEDTAVYICAREFGKRYALDYWGQGTTVTVSS VL: DIQMTQSPSSLSASVGDRVTITCKASQDVTPAVAWYQQKPGKAPKLLIYSTSSRYTGVPSRFSGSGSGTDFTFTISSLQPEDIATYYCQQHYTTPLTFGQGTKLEIK |  |
|  |  | 4.25 | 0.000418 | 98300 | B6 (anti-PD-L1) (antibody, V domains shown, Engineered anti-PD-L1 clone) VH: EVQLVESGGGLVQPGGSLRLSCAASGFTFSSYDMSWVRQAPGKSLEWVATISDAGGYIYYRDSVKGRFTISRDNAKNSLYLQMNSLRDEDTAVYICARELPWRYALDYWGQGTTVTVSS VL: DIQMTQSPSSLSASVGDRVTITCKASQDVTPAVAWYQQKPGKAPKLLIYSTSSRYTGVPSRFSGSGSGTDFTFTISSLQPEDIATYYCQQHYTTPLTFGQGTKLEIK | EC50 (read off the curve) [6]: ~0.2 nM; EC50 (read off the curve) [7]: ~1 nM |
